We go through one variant from FireProtDB (doi:10.1021/bi00178a007).

As a reminder, the Tm is the temperature at the midpoint of the melting transition.

First the molecules themselves.
B1: Tissue-type plasminogen activator, P00750 (parent)
chain: MDAMKRGLCCVLLLCGAVFVSPSQEIHARFRRGARSYQVICRDEKTQMIYQQHQSWLRPVLRSNRVEYCWCNSGRAQCHSVPVKSCSEPRCFNGGTCQQALYFSDFVCQCPEGFAGKCCEIDTRATCYEDQGISYRGTWSTAESGAECTNWNSSALAQKPYSGRRPDAIRLGLGNHNYCRNPDRDSKPWCYVFKAGKYSSEFCSTPACSEGNSDCYFGNGSAYRGTHSLTESGASCLPWNSMILIGKVYTAQNPSAQALGLGKHNYCRNPDGDAKPWCHVLKNRRLTWEYCDVPSCSTCGLRQYSQPQFRIKGGLFADIASHPWQAAIFAKHRRSPGERFLCGGILISSCWILSAAHCFQERFPPHHLTVILGRTYRVVPGEEEQKFEVEKYIVHKEFDDDTYDNDIALLQLKSDSSRCAQESSVVRTVCLPPADLQLPDWTECELSGYGKHEALSPFYSERLKEAHVRLYPSSRCTSQHLLNRTVTDNMLCAGDTRSGGPQANLHDACQGDSGGPLVCLNDGRMTLVGIISWGLGCGQKDVPGVYTKVTNYLDWIRDNMRP

Variants of B1 are the subject of the series. The conditions noted are these: Homo sapiens; pH 8; Thermal; DSC; Tris - Oac/100mM NaOAc 50 mM; transition: 2; structure 1PML; whole UniProt chain shown.
As to Y290F, the Tm is 81.5 °C and the “change of melting temperature, mutant - wild type (higher = more stable)” value came to 14.8 °C.
